The values that follow come from PMC12207370, “Macrocyclic Peptide Probes for Immunomodulatory Protein CD59: Potent Modulators of Bacterial Toxin Activity and Antibody‐Dependent Cytotoxicity” (Angewandte Chemie (International Ed. in English), 2025).

The assay has as its target T1, biotinylated CD59 (Homo sapiens, UniProt P13987).
T1 construct: Recombinant soluble human CD59 with an additional C-terminal cysteine residue
T1 sequence (P13987 26-102 limits assumed): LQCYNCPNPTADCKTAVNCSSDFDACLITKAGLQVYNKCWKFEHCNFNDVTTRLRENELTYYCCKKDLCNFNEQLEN
Put plainly: mRNA-display cyclic peptide screen against CD59-biotin, NGS abundance after 6th selection round. To be noted: for Percentage Seq I: counts normalised by total counts of sample Seq I; for Percentage Seq I / Percentage Seq II: percentage of the pool; for Percentage Seq I / Percentage Seq II / Percentage Average / Percentage of the pool, averaged across the two sequencing samples / Percentage of the pool, Seq I / Percentage of the pool, Seq II: sheet R6; for Percentage Seq II: counts normalised by total counts of sample Seq II; for Percentage Average: percentage of the pool averaged across the two sequencing samples; for Counts Seq I / Counts Seq II: raw NGS counts of peptide sequence; for Counts Seq I: sequencing sample Seq I; for Counts Seq I / Counts Seq II / Counts (raw counts for peptide sequence), Seq I / Counts (raw counts for peptide sequence), Seq II: sheet R6 (6th selection round); for Counts Seq II: sequencing sample Seq II; for Counts (raw counts for peptide sequence), Seq I: NGS sample Seq I; for Counts (raw counts for peptide sequence), Seq II: NGS sample Seq II; for Percentage of the pool, averaged across the two sequencing samples: average of Seq I and Seq II; for Percentage of the pool, Seq I: counts normalised by total counts of NGS sample Seq I; for Percentage of the pool, Seq II: counts normalised by total counts of NGS sample Seq II. The source says: To discover novel non‐protein CD59 ligands, we screened a library of 10^12 cyclic peptides against CD59 using mRNA‐display (Figure 2a).^[ [23], [24], [25], [26], [27], [28], [29] ^] Briefly, an mRNA library was designed in which the start codon was reprogrammed from Met to N‐chloroacetyl‐D‐Tyr (ClAc‐D‐Tyr), followed by 10–12 randomly encoded natural amino acids, a Cys residue, a (GlySer)3 linker, and a stop codon. […] The total library diversity was 1.51 × 10^13 molecules, comprising 5.02 × 10^12 molecules of each macrocycle size, covering a subset of the maximum theoretical diversity of this library design. Following in vitro translation, ClAc‐D‐Tyr spontaneously reacts with either the C‐terminal Cys or a Cys in the random region, yielding macrocyclic thioether peptides. Hits from the library were identified through iterative enrichment and amplification against biotinylated CD59, then immobilized on streptavidin beads. Fifteen hit sequences (CP‐01 to CP‐15), enriched with abundance >1% relative to the total pool of recovered binders after the 6th round of selection, were synthesized by solid phase peptide synthesis (SPPS), without the (Gly‐Ser)3 linker.
Figure 2 Discovery of macrocyclic peptide ligands with nanomolar CD59 affinity using mRNA display. a) The selection process. PCR = polymerase chain reaction, SPPS = solid phase peptide synthesis. b) Table showing details of the peptides with nanomolar affinity for CD59 as well as the binding affinity of the lead inhibitor of CD59, rILYd4. K D values are presented as the average of three technical replicates ± SEM. Structures of all peptides and SPR sensograms are presented in Figures S1 and S2. *indicates the presented sequences are the variable regions of these cyclic peptides; each is flanked by an N‐terminal Ac‐D‐Tyr cyclized to a C‐terminal Cys. R6 abundance (%) is defined as (the given number of NGS reads for a given sequence/the total number of reads of unique sequences observed in NGS)*100 following the 6th selection round. c) Representative sensogram of the interaction between CP‐06 with immobilized CD59 by SPR analysis. Inset showing the equilibrium binding curve of CP‐06 to CD‐59. Below in the box are the association and dissociation rate constants of CP‐06. Concentrations are plotted in descending order from 800‐3.1 nM in line with their position on the legend. […] (nM)'; the box with Kon/Koff has no label of its own / ILYd4: the label may be cut off at the left edge (possibly 'rILYd4') / CP-02, KD: 15.3 ± 0.2, small print, 3 or 8 uncertain / CP-03, KD: 23.4 ± 0.7, small print / CP-06, KD: 11.3 ± 0.0, small print, 3 or 8 uncertain / CP-13, KD: 10.8 ± 0.7, small print, 8 or 6 uncertain / ILYd4, KD: 48.3 ± 1.1, small print, 8 and 3 uncertain
The mRNA-display cyclic peptide screen was performed against CD59-biotin by T.E.M: DNA templates for transcription were generated by PCR in a similar manner to that previously described.^2 RNA oligonucleotides were transcribed from the DNA templates using T7 RNA polymerase and purified by phenol/chloroform extraction followed by ethanol precipitation. Oligonucleotide concentrations were determined spectroscopically by absorbance at 260 nm. In the first selection round a 1:1:1 molar ratio of NNK10/NNK11/NNK12 was used. The procedure for selection rounds 2-6 is described below; round 1 was conducted at twice the scale.
RNA encoding for the peptide library ligated to a puromycin-modified oligonucleotide was […] (final [RNA] = 2.5 µM) using a customised PURE express kit (lacking release factor 1 and methionine, supplemented with […] initiator tRNA acylated with N-chloroacetyl-d-tyrosine prepared as previously described)^3 in a final volume of 5.6 µL for 1 hour at 37 °C.
This mixture was incubated at 42 °C for 1 hour before being diluted to 500 µL with PBS (10 mM Na-PO4 pH 7.4, 2.7 mM KCl, 137 mM NaCl) and 0.5 µL taken for subsequent use in qPCR. […]

For ISYGDRSYTYY, the “Percentage Seq I” value was 0.106%, the “Percentage Seq II” value is listed as 0.121%, the “Percentage Average” value is listed as 0.113% and the “Counts Seq I” value worked out at 463. Moreover, the “Counts Seq II” value stood at 52.
As to CLRRHVTASDV, the “Percentage Seq I” value came to 0.040%, the “Percentage Seq II” value turned out to be 0.023%, the “Percentage Average” value was determined as 0.031% and the “Counts Seq I” value is 174. Further, the “Counts Seq II” value worked out at 10.
On the same counts, the results for VIWGSRLATGG are 0.025%, 0.026%, 0.025%, 109 and 11.
In the same order, the values of TYGSRFCPQYCAAAAAAARTGGG are 0.030%, 0.037%, 0.034%, 133 and 16.
On to CFYQRTLGTTAS, for which the “Percentage Seq I” value is 0.018%, the “Percentage Seq II” value is 0.021%, the “Percentage Average” value is reported as 0.019% and the “Counts Seq I” value turned out to be 79. The “Counts Seq II” value was 9.
Take SKNGLTFLCS: the “Percentage Seq I” value is given as 0.016%, the “Percentage Seq II” value is reported as 0.032%, the “Percentage Average” value is reported as 0.024% and the “Counts Seq I” value was found to be 70. The “Counts Seq II” value is listed as 14.
On the same counts, the results for WTRGSKDYTRG are 0.168%, 0.167%, 0.168%, 737 and 72.
As to GRLNECHVIWP, the “Percentage Seq I” value is listed as 0.317%, the “Percentage Seq II” value is 0.302%, the “Percentage Average” value was 0.310% and the “Counts Seq I” value is given as 1389. Also, the “Counts Seq II” value is on record as 130.
In the same order, the values of WILGSRWWTQS are 0.921%, 0.903%, 0.912%, 4031 and 389.
Consider WSTRERQISC, for which the “Counts (raw counts for peptide sequence), Seq I” value amounted to 70; the “Counts (raw counts for peptide sequence), Seq II” value was found to be 3; the “Percentage of the pool, averaged across the two sequencing samples” value came to 0.011%; the “Percentage of the pool, Seq I” value is given as 0.016%. Moreover, the “Percentage of the pool, Seq II” value was 0.007%.
On the same counts, the results for CKIDVYGRTWS are 81, 5, 0.015%, 0.019% and 0.012%.
Consider CLRLHREPGSL, for which the “Percentage Seq I” value is 0.103%, the “Percentage Seq II” value came to 0.135%, the “Percentage Average” value came to 0.119% and the “Counts Seq I” value was 449. The “Counts Seq II” value was found to be 58.
With IARGGRHFSSG, the “Counts (raw counts for peptide sequence), Seq I” value amounted to 46; the “Counts (raw counts for peptide sequence), Seq II” value amounted to 4; the “Percentage of the pool, averaged across the two sequencing samples” value is recorded as 0.010%; the “Percentage of the pool, Seq I” value is listed as 0.011%. Besides, the “Percentage of the pool, Seq II” value is 0.009%.
In the same order, the values of HCRVRGSRNYT are 38, 6, 0.011%, 0.009% and 0.014%.
On to HCWVRGSRNYA, for which the “Percentage Seq I” value was found to be 0.029%, the “Percentage Seq II” value is reported as 0.028%, the “Percentage Average” value is recorded as 0.029% and the “Counts Seq I” value was 128. The “Counts Seq II” value worked out at 12.
Take CYGGRTFIYARS: the “Percentage Seq I” value was found to be 0.027%, the “Percentage Seq II” value is recorded as 0.016%, the “Percentage Average” value was determined as 0.021% and the “Counts Seq I” value was found to be 117. Besides, the “Counts Seq II” value is 7.
Take CYGSRTFIYAWS: the “Percentage Seq I” value worked out at 0.026%, the “Percentage Seq II” value amounted to 0.019%, the “Percentage Average” value was determined as 0.022% and the “Counts Seq I” value is 114. Further, the “Counts Seq II” value was 8.
With RRDRFDQCVL, the “Counts (raw counts for peptide sequence), Seq I” value is recorded as 33; the “Counts (raw counts for peptide sequence), Seq II” value is given as 5; the “Percentage of the pool, averaged across the two sequencing samples” value is 0.010%; the “Percentage of the pool, Seq I” value was 0.00754%. Besides, the “Percentage of the pool, Seq II” value turned out to be 0.012%.
For the sequence CIRGTPTTV, the “Counts (raw counts for peptide sequence), Seq I” value is recorded as 56; the “Counts (raw counts for peptide sequence), Seq II” value is recorded as 3; the “Percentage of the pool, averaged across the two sequencing samples” value was 0.010%; the “Percentage of the pool, Seq I” value is recorded as 0.013%. In addition, the “Percentage of the pool, Seq II” value is 0.007%.
Take FIRGNSTSVLFLRQRQRQLGRGAE: the “Percentage Seq I” value is reported as 0.060%, the “Percentage Seq II” value turned out to be 0.072%, the “Percentage Average” value came out at 0.066% and the “Counts Seq I” value is 264. The “Counts Seq II” value was 31.
As to IAFGSRFHSYQ, the “Percentage Seq I” value worked out at 0.584%, the “Percentage Seq II” value was determined as 0.647%, the “Percentage Average” value worked out at 0.616% and the “Counts Seq I” value was 2554. Besides, the “Counts Seq II” value stood at 279.
For the sequence HCWARGSRNYT, the “Percentage Seq I” value worked out at 0.041%, the “Percentage Seq II” value was 0.035%, the “Percentage Average” value worked out at 0.038% and the “Counts Seq I” value came out at 180. The “Counts Seq II” value is 15.
On the same counts, the results for YVFWSRTHTYG are 0.172%, 0.165%, 0.168%, 751 and 71.
Take LWGTHSYIYYRP: the “Percentage Seq I” value is 0.482%, the “Percentage Seq II” value is 0.490%, the “Percentage Average” value came to 0.486% and the “Counts Seq I” value stood at 2109. Besides, the “Counts Seq II” value is 211.
In the same order, the values of FIFGNRNWTFG are 0.021%, 0.021%, 0.021%, 94 and 9.
In the case of GRYNECHFITS, the “Counts (raw counts for peptide sequence), Seq I” value is 59; the “Counts (raw counts for peptide sequence), Seq II” value was found to be 6; the “Percentage of the pool, averaged across the two sequencing samples” value worked out at 0.014%; the “Percentage of the pool, Seq I” value was 0.013%. The “Percentage of the pool, Seq II” value came to 0.014%.
